Consider 2 substances from patent US20050214212A1.

For test [1], the target named is glutathione-S-transferase fusion protein containing domains v3-v10 of human CD44 (human) (UniProt P16070). Put plainly: SPR (BIAcore 2000), GST/CD44v3-v10 immobilised on CM5, MAb 8-67 nM injected. (In general: In SPR one partner is held on a chip, and binding of the other changes the refractive index at the surface.)
The target is the same in test [2]. Kind of test: SPR (BIAcore 2000), GST/CD44v3-v10 immobilised on CM5.
Test [3] addresses CD44v6 (human CD44 variant isoform containing exon v6) on human tumour cells (human) (UniProt P16070). Kind of test: immunoreactivity assay, 186Re-MAG3-labelled MAb on fixed UM-SCC-11B cells.
Test [4] shares this target. Kind of test: immunoreactivity assay, 125I-labelled MAb on glutaraldehyde-fixed UM-SCC-11B cells, experiment 2.
For test [5] the target is unchanged. Kind of test: immunoreactivity assay on fixed UM-SCC-11B cells, linear extrapolation to infinite antigen excess, experiment 2.
Test [6] has the same target. Put plainly: competitive cell ELISA (A431 cells, vs BIWA 1). Background: In an ELISA, binding on a coated surface is turned into a signal by an enzyme label.
Target sequence in this assay (P16070 21-742, change not shown): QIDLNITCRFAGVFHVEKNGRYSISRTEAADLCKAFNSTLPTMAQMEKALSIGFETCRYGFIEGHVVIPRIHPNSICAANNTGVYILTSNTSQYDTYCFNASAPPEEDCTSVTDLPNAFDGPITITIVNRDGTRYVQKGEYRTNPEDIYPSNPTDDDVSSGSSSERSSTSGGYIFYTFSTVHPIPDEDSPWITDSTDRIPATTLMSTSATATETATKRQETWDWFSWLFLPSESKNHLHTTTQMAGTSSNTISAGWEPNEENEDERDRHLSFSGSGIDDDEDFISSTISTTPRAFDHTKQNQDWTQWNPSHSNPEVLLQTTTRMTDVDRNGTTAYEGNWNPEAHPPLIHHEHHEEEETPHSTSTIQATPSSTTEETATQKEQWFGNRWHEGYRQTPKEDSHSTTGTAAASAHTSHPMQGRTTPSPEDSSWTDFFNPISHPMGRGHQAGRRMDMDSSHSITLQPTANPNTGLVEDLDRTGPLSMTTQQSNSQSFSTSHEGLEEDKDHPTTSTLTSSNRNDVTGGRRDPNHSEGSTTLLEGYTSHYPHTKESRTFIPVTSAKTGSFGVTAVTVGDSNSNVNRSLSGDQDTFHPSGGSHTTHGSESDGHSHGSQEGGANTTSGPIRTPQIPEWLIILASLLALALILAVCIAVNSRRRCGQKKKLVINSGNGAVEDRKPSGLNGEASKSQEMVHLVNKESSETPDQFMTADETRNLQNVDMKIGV

Chain of glutathione-S-transferase fusion protein containing domains v3-v10 of human CD44 (human) (P16070 267-604): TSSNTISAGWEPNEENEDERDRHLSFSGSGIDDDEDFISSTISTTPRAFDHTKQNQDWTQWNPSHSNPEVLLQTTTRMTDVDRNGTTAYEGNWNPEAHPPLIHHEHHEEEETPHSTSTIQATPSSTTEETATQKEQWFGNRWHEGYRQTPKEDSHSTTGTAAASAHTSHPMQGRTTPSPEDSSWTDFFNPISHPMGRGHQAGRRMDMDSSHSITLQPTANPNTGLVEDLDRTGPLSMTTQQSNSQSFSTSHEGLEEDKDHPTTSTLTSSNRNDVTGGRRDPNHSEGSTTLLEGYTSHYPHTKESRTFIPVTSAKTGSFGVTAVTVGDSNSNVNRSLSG

In test [1], “cMAb BIWA 2 (chimeric antibody: BIWA 1 variable regions, human gamma-1 and kappa constant regions)” returned a dissociation constant (Kd) of 0.24 nM, a koff of 4.1e-05 s⁻¹ and an association rate constant (kon) of 170000 M⁻¹ s⁻¹. Further, the Kd relative to murine BIWA 1 in test [2] worked out at 0.7. This substance yielded an immunoreactive fraction in test [3] of more than 75%. In test [4], this substance yielded a Binding to 5 × 10^6 cells (%) of 80.5%. In test [5], the Binding Extrapolated (%) (immunoreactive fraction) was 79.9%.
Substance “hMAb BIWA 4 (bivatuzumab), humanised CDR-grafted antibody without framework modifications” had an IC50 in test [6] of 8.01 µg/mL.

As a reminder, the Kd is the constant that tells how readily two partners part at equilibrium. The low end stands for higher affinity, the high end for lower affinity. Usually koff stands for the rate constant with which the complex falls apart. A lower koff goes with a long-lived complex. The kon is the second-order rate constant of association. Lower therefore signals slow association. For orientation: IC50 means the concentration that gives 50% inhibition. High values mean lower potency, low ones higher potency.
